Our source for the PathHunter pTrkB assay in U2OS TrkB/p75NTR cells, 300 pM BDNF and pERK assay in U2OS TrkB/p75NTR cells, 150 pM BDNF values is patent US20160207991A1.

The target of assay [1] is human brain-derived neurotrophic factor (BDNF) (human) (UniProt P23560). The experiment in a line: cell-based or functional assay.
The target is the same in assay [2]. The experiment in a line: cell-based or functional assay. The source holds these as a separate data set.

Where two headings read alike, the source gives them in different places.

Sequence of human brain-derived neurotrophic factor (BDNF) (human) (P23560 129-247 limits assumed): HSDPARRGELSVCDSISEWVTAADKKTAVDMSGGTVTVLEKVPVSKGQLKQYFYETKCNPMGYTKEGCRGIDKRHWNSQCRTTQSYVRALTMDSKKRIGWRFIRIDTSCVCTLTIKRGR

The substance “TrkB-Fc (Sigma T8694) (from UniProt P15209 32-429) (Fc fusion)” had a PathHunter pTrkB assay in U2OS TrkB/p75NTR cells, 300 pM BDNF in assay [1] of 4.4 nM. In assay [2], the PathHunter pTrkB assay in U2OS TrkB/p75NTR cells, 300 pM BDNF is 24 nM and the pERK assay in U2OS TrkB/p75NTR cells, 150 pM BDNF came out at 7.6 nM.
